According to paper PMC3417354 (Analytical biochemistry, 2012):
One block for each binder: values may come before it.

Target: human proliferating cell nuclear antigen (PCNA), no tag (human, UniProt P12004 1-261)
Test: fluorescence polarisation

human proliferating cell nuclear antigen (PCNA), no tag, sequence (P12004 whole entry): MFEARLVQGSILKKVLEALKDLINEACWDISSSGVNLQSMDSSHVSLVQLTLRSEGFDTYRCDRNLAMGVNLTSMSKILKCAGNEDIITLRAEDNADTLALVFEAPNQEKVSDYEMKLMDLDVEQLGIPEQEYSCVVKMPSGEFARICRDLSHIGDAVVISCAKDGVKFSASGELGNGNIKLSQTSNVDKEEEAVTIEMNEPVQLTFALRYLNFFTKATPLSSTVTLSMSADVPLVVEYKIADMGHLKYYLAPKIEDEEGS

IC50: 600 nM
Kd: 2.2 ± 0.2 nM
B1: trivalent p21 peptide (peptide)
chain: KRRQTSMTDFYHSKRRLIFSGGSGGSGGSGGSGGSGGSKRRQTSMTDFYHSKRRLIFSGGSGGSGGSGGSGGSGGSKRRQTSMTDFYHSKRRLIFS

IC50: 1000 nM
Kd: 30 ± 2 nM
B2: divalent p21 peptide (peptide)
chain: KRRQTSMTDFYHSKRRLIFSGGSGGSGGSGGSGGSGGSKRRQTSMTDFYHSKRRLIFS
